# Test results reported in doi:10.1101/192500 (bioRxiv, 2018).
# Where a chain is given by its changes, count along the chain named. In names and notes the source's numbering stands.
# B1: MlaA_(D61-K124) peptide (domain or fragment, E. coli, UniProt P76506 61-124, looked up)
# chain: DYVPQPARNGLSNFTGNLEEPAVMVNYFLQGDPYQGMVHFTRFFLNTILGMGGFIDVAGMANPK
# B2: OmpC (wild type, in the purified OmpC-MlaA-His complex) (natural protein, E. coli)
# chain: AEVYNKDGNKLDLYGKVDGLHYFSDNKDVDGDQTYMRLGFKGETQVTDQLTGYGQWEYQIQGNSAENENNSWTRVAFAGLKFQDVGSFDYGRNYGVVYDVTSWTDVLPEFGGDTYGSDNFMQQRGNGFATYRNTDFFGLVDGLNFAVQYQGKNGNPSGEGFTSGVTNNGRDALRQNGDGVGGSITYDYEGFGIGGAISSSKRTDAQNTAAYIGNGDRAETYTGGLKYDANNIYLAAQYTQTYNATRVGSLGWANKAQNFEAVAQYQFDFGLRPSLAYLQSKGKNLGRGYDDEDILKYVDVGATYYFNKNMSTYVDYKINLLDDNQFTRDAGINTDNIVALGLVYQF
# B3: OmpCG19W/R92L (natural protein, E. coli, UniProt P06996 22-367, looked up)
# chain: B2 chain with G19W, R92L
# B4: OmpC_(R92L) (natural protein, E. coli, UniProt P06996 22-367, looked up)
# chain: B2 chain with R92L
# B5: OmpC_(R92A) (natural protein, E. coli, UniProt P06996 22-367, looked up)
# chain: B2 chain with R92A
# B6: OmpC_(G19W) (natural protein, E. coli, UniProt P06996 22-367, looked up)
# chain: B2 chain with G19W
# Experiments:
# [1] = biological target: B2; experiment: SEC
# SEC-MALS = biological target: the molecule itself; experiment: SEC-MALS
# [2] = biological target: MlaA-His (from dmlaA-His plasmids, in purified OmpC-MlaA-His complexes) (E. coli) (UniProt P76506); experiment: SEC-MALS
# MlaA-His (from dmlaA-His plasmids, in purified OmpC-MlaA-His complexes) (E. coli), sequence (P76506 18-251, one chain of several): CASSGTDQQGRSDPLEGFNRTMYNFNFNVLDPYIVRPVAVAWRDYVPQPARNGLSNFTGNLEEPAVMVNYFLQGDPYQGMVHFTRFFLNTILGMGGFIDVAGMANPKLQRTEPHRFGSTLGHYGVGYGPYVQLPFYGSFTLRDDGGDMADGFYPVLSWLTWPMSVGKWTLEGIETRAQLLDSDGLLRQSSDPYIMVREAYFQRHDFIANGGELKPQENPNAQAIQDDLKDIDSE
# [3] = biological target: the molecule itself; experiment: temperature titration with SDS-PAGE
Binder,binding result [3],also measured
B1,,binding result [1]: binds
B2,,stoichiometry N (SEC-MALS): 3; stoichiometry N (MlaA per OmpC trimer) [2]: 1
B3,binds,
B4,binds,
B5,binds,
B6,binds,
